Source: patent US20200347384

Experiments:
[1] = target: T1, HIV-1 reverse transcriptase (HIV RT) (Human immunodeficiency virus) (UniProt P03366+P03366); experiment: MST; conditions: TNA at all positions; triplicate
[2] = target: T1, HIV-1 reverse transcriptase (HIV RT) (Human immunodeficiency virus); experiment: EMSA; conditions: TNA at all positions; ~500 pM after 1 h 37 C with snake venom phosphodiesterase (p160)

AATAGTAAATTGATTTAAAAATTTCATAAATGCTACATAA [HIV-RT 3.17]
Kd [1]: 0.38 nM | Kd [2]: 0.196 nM
